Experimental data: the nanobody polyreactivity screen of Harvey et al. (2022)

test: yeast display, Sf9 membrane polyspecificity reagent, FACS + sequencing; frameworks hold sequencing errors
Summary of the method: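 Polyreactivity labels are assigned by the sorting gate from which each nanobody was recovered. The gates were low and high (top ~1%), set on anti-HA fluorescence for expression and streptavidin fluorescence for reagent binding. Before sorting, galactose-induced (36–48 hours) yeast display cells were stained for 1 hour at 4 °C with 10% biotinylated, detergent-solubilized Sf9 membrane reagent.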

Sequence	polyreactivity (PSR sort gate)
QVQLVESGGGLVQAGGSLRLSCAASGGTFPQFAMGWYRQAPGKEREFVADITSRGGTTYYADSVKGRFTISRDNAKNTVYLQMNSLKPEDTAVYYCAADNPADWWGLDYWGQGTQVTVSS	low polyreactivity
QVQLVESGGGLVQAGGSLRLSCAASGGTFPQYAMGWYRQAPGKEREFVADITSRGGTTYYADSVKGRFTISRDNAKNTVYLQMNSLKPEDTAVYYCAAVNVAYSWYDTGYDYWGQGTQVTVSS	low polyreactivity
QVQLVESGGGLVQAGGSLRLSCAASGGTFPRNAMGWYRQAPGKERELVAAINQSGGRTYYADSVKGRFTISRDNAKNTVYLQLNSLKPEDTAVYYCAARVTYYRTYRGRQYGYWGQGTQVTVSS	high polyreactivity
QVQLVESGGGLVQAGGSLRLSCAASGGTFPYYAMGWYRQAPGKERELVAAITWDGGSTYYADSVKGRFTISRDNAKNTVYLQMNSLKPDATAVYYCNVRYYRYISRYDYWVQGTQVTVSS	high polyreactivity
QVQLVESGGGLVQAGGSLRLSCAASGGTFQQHAMGWYRKAPGTERELVAAISRSGGNTYYADSVKGRFTISRDNSKNTVYFQMNSLKPEDTAVYSCAVVSSSQYSRYTSQWKEYYWGKGTQVTVSS	low polyreactivity
QVQLVESGGGLVQAGGSLRLSCAASGGTFQRYVMGWYRQAPGKERELVAAISRSGSTYADSVKGRFTISRDNAKNTVYLQMNSLKPEDTAVYYCNVVRYYRYYLHGYDYWGQGTQVTVSS	high polyreactivity
QVQLVESGGGLVQAGGSLRLSCAASGGTFQYYTMGWYRQAPGKERELVAGISSGGSTYYADSVKGRFTISRDNAKNTVYLQMNSLKPEDTAVYYCNAVSRRKTYGYRIIKYDYWGQGTQVTVSS	high polyreactivity
QVQLVESGGGLVQAGGSLRLSCAASGGTFRPNAMGWYRQAPGKERELVAAITRSGGSTYYADSVKGRFTISRDNAKNTVYLQMNSLKPEDTAVYYCARDLRECGQGTQVTVSS	low polyreactivity
QVQLVESGGGLVQAGGSLRLSCAASGGTFRPNAMGWYRQAPGKERELVAAITRSGGSTYYADSVKGRFTISRDNAKNTVYLQMNSLKPVDTAVYYCARDLREWGQGTQVTVSS	low polyreactivity
QVQLVESGGGLVQAGGSLRLSCAASGGTFRRYAMGWSRQAPGKERELVAAITRSGTNTYYADSVKGRFTISRDNAKNTVYLQMNSLNPEDTAVYYCAADGFGKYWGQGTQVTVSS	high polyreactivity
QVQLVESGGGLVQAGGSLRLSCAASGGTFRYYAMGWYRQAPGKEREFVAAITSSGGSTYYADSVKGRFTISRDNAKKTVYLQMNRLKPEDTAGYYCATDNPFLWWFRPDQHGMGYWGQGTQVTVSS	low polyreactivity
QVQLVESGGGLVQAGGSLRLSCAASGGTFSKNAMGWYRQAPGKERELVADIRSGGSTYYADSVKGRFTISRDNAKNTVYLQMNSLKPEDTAVYYCNADGDVNEYDYWGQGTQVTVSS	low polyreactivity
QVQLVESGGGLVQAGGSLRLSCAASGGTFSKYAMGWYRQAPGKEREFVAAITVSGGGSYYADSVKGRFTISRDNAKNTVYLQMNSLKPEDTAVYYCAADLAWTASDYWGQGTQVTVSS	low polyreactivity
QVQLVESGGGLVQAGGSLRLSCAASGGTFSKYAMGWYRQAPGKERELVAAITYSSGSKYYADSVKGRFTISRDNAKNTVYLQMNSLKPEDTADYYCAARSGLYWWRFDYWGQGTQVTVSS	high polyreactivity
QVQLVESGGGLVQAGGSLRLSCAASGGTFSNYAMGWYIPAPGKERELVAAITSGGGSTYYADSVKGRFTISRDNAKNTVYLQMNSLKPEDTAVYYCAARRSSYGYWGQGTQVTVSS	high polyreactivity
QVQLVESGGGLVQAGGSLRLSCAASGGTFSVYGMGWYRPAPGKERDLVAVINGTDGITYYADSVKARVTISRDNAKNTVYLQMNSLKPEDTAVYDCAKDSDFLAYHGLDHWGQGTLVTVSS	low polyreactivity
QVQLVESGGGLVQAGGSLRLSCAASGGTFSYNAMGWYRQAPGKERELVAAISSRGGSTYYSDSVKGRFTISRDNAKNTDYLQMNSLKPEDTAVYYCNAVRGVWYGSWGQGTQVTVSS	high polyreactivity
QVQLVESGGGLVQAGGSLRLSCAASGGTFSYYAMGCYRQAPGKERELVASISTDGGSTYYADSVKGRFTISRDNAKNTVYLQMNSLKPEDTAVYYCNARPRGYSDRYGYWGQGTQVTVSS	high polyreactivity
QVQLVESGGGLVQAGGSLRLSCAASGGTFSYYAMGWYRQAPGKERELFASISSGGSTYYADSVKGRFTISRDNAKNTVYLQMNSLKPEDTAVYYCNAEARSRRYRYDYWGQGTQVTVSS	high polyreactivity
QVQLVESGGGLVQAGGSLRLSCAASGGTFTHNAMGWYRQAPGKDWELVAAISRSGGSTSYADSVKGRFTISRYNAKNTVYLQMNSLKPEDTAVYYCADRISRQRSYSRDYWGQGNQVTVSS	high polyreactivity
QVQLVESGGGLVQAGGSLRLSCAASGGTFTWYAMGWYRQAPGKERELVAAISSDGSTYYADSVKGRFTISRDNAKNTVYLQMNSLKPEDTAVYYSAAYSSWGGFDYWGQGTQVTVSS	low polyreactivity

Sequence	polyreactivity (PSR sort gate)
QVQLVESGGGLVQAGGSLRLSCAASGGTFVFYAMGWYRQAPGKERELVAAISSAGRTYYADSVKGRFTISRDNAKNTVYFQMNSLKPEDNAVYYCAAVSSQYDGRYYYWGQGTQVTVSS	high polyreactivity
QVQLVESGGGLVQAGGSLRLSCAASGGTFVPYAMGWYRQAPGKERELVAAITIGGSTSYADSVKGRFTISRDNAKNTVYLQMNSLKPEDTAVYYCNARSYPDYIYWSQRYDYDYWGQGTQVTVSS	low polyreactivity
QVQLVESGGGLVQAGGSLRLSCAASGGTFVRYAMGGYRPAPGKERELVAAISSRGGSTYYADSVKGRFTISRDNAKNTVFLQMNSLKPEDTAVYYCAARPGYYDFYWGQGTQVTVSS	high polyreactivity
QVQLVESGGGLVQAGGSLRLSCAASGGTFVYNAMGWNRQAPGKERELVAAISRSGSRTYYADSVKGRFTISRDNAKNTVYLQMNSLKPEDTAVYYCAARGYYPEYNHWGQGSQVTVSS	high polyreactivity
QVQLVESGGGLVQAGGSLRLSCAASGGTFWYYAMGWYRQAPGKERELVASISRGGSTNYADSVKGRFTISRDNAKNTVYLLMNSLKPEDTAVYYCNAGLRVGPRRYVDYEYDYWGQGTQVTVSS	low polyreactivity
QVQLVESGGGLVQAGGSLRLSCAASGGTFYHYAMGLYRQAPGKERALGAAIRSGARTNYADSVKGRFTISRDNAKNTVYLQMNSLYPEDTAAYSCAAARVRGYVRSGLDYWGQGTQVTVSS	high polyreactivity
QVQLVESGGGLVQAGGSLRLSCAASGGTFYIYVMGWYRQAPGKERELVAAITSGDSTNYADSVKGRFTISRDNAKNTVYLQMNSLKPEDTAVYYCATGYWELRYDYWGQGTQVTVSS	low polyreactivity
QVQLVESGGGLVQAGGSLRLSCAASGGTFYPYAMGWYRQAPGKVRELVAAITSCGSTNYADSVKGRFTISRDNAKKTVYLQMNSLKPEDTAVYYCAAKSSYIRPTNSDDYDYWGQGTQVTVSS	low polyreactivity
QVQLVESGGGLVQAGGSLRLSCAASGGTFYRNAMGWYRQAPGKERELVAAITKRGGSTYYADSVKGRFTISRDNAKNTVYIQINSLKPEDTAVYYCAKDAAPIPGNDSDYWGQGTQVTVSS	high polyreactivity
QVQLVESGGGLVQAGGSLRLSCAASGGTFYRSAMGWYRQAPGKERELVAAISTGSSTYYADSVKGRFTISRDNAKNTVYLQINSQKPEDTAVNYCAARYWERYRSFNYWGQGTQVTVSS	high polyreactivity
QVQLVESGGGLVQAGGSLRLSCAASGGTFYRYAMGWYRQAPGKEREFVASITQRGGRTYYADSVKGRFTISRDNAKNTVYLQMNSLKPEDTAVYYCAVEYYNYPNSRRYDYWGQGTQVTVSS	high polyreactivity
QVQLVESGGGLVQAGGSLRLSCAASGGTFYVYAMGWYRQAPGKERELVAAISTSGGSTYYADSVKGRFTISRDNAKNTVYLQMNSLKPEDTAVYYCAARRVSFSGHPRYGYWGQGTQVTVSS	high polyreactivity
QVQLVESGGGLVQAGGSLRLSCAASGGTFYYNAMGWYRQAPGKERELVAAITSGDRTYYADSVKGRFTISRDIAKNTVYLQMNSLKPEDTAVSYCARAGKTRAGYDYWGQGTQVTVSS	high polyreactivity
QVQLVESGGGLVQAGGSLRLSCAASGGTITRYAMGWYRQAPGKERELVAAISSSGGSTYYADSVKGRFTISRDNAKNTVYLQMNSLKPEDTAVYYCAAEGYTLWYWLEFEYWGQGTQVTVSS	high polyreactivity
QVQLVESGGGLVQAGGSLRLSCAASGGTITSYAMGWYRQAPGKERELVAAITRSGGSTYYADSVKGRFTISRDNAKNTVYLQMNSLKPEDTAVYYCAARYSTYPWYNSWGQGTQVTVSS	high polyreactivity
QVQLVESGGGLVQAGGSLRLSCAASGGTIVWNAMGWYRQAPGKERELVAAITWSGGSTYYADSVKGRFTISRDNAKNTVYLPMNSLQPEATAVYYCNADRFGRAHVYPEFDYWGQGTQVTVSS	low polyreactivity
QVQLVESGGGLVQAGGSLRLSCAASGGTLATYAMGWYRQAPGKERELVARIRIGGSTNYADSVKGRFTISRDNAKNTVYLQMNSLKPEDTAVYYCNKYSVLSRQRYSHPVNYDSWGQGTQVTVSS	high polyreactivity
QVQLVESGGGLVQAGGSLRLSCAASGGTLFTNAMGWYRQAPGKERELVAAISWRGGRTYYADSVKGRFTISRDNAKNTVYLQMNSLKPEDSAVYYCAADVSAVQGYYYWGQGTQVTVSS	low polyreactivity
QVQLVESGGGLVQAGGSLRLSCAASGGTLRRYAMGWYRQAPGKERELVAAIIDRSGSTSYADSVKGRFTISRDNAKNTVYLQMNSLKPEDTAVYYCAARTYRTRYYYWGQGTQVTVSS	high polyreactivity
QVQLVESGGGLVQAGGSLRLSCAASGGTLRYYVMGWYRQAPGKERELVAAISWSGDSTYYADSVKGRFTISRDNAKNTVYLEMNSLKPDDTAVYYCAATYYVTYYYGQANHGYDYWGPGTQVTVSS	low polyreactivity
